Target: T1, MLO-Y4 cell surface proteins (Mus musculus, UniProt P59242)
T1 construct: endogenous in cells; host or cells: MLO-Y4
T1 sequence (P59242 1-1191): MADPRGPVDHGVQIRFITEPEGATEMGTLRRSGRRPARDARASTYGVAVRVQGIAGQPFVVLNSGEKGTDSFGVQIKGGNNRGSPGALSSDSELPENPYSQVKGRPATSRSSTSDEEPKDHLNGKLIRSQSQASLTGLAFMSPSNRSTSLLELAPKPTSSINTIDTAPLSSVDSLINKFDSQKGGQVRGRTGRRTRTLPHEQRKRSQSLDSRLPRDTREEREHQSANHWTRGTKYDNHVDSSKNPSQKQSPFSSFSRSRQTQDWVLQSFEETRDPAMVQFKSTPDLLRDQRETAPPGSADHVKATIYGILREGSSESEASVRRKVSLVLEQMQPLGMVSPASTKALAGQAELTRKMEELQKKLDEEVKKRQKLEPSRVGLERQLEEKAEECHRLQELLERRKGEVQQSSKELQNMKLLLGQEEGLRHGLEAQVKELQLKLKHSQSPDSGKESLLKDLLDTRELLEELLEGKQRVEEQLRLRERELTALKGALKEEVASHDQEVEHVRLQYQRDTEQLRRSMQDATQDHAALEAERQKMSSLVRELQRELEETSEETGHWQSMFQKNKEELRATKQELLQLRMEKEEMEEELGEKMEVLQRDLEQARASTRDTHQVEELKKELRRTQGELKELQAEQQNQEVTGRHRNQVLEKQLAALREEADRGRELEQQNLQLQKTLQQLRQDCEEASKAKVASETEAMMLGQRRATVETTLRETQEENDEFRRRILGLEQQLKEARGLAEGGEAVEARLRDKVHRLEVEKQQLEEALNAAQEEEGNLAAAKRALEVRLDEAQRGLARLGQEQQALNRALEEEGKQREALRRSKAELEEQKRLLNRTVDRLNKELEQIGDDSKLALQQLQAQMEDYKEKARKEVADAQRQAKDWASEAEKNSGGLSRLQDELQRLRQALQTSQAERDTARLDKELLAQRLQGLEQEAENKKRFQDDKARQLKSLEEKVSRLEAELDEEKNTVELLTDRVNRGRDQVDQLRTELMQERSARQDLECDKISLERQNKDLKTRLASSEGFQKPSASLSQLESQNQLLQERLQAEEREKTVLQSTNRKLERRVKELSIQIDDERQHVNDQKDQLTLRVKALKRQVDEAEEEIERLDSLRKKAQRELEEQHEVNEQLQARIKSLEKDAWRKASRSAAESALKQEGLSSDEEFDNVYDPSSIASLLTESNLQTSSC
Test: Crosslinking/co-immunoprecipitation/mass spectrometry (TMT quantitative proteomics) to identify irisin receptors
Format: binding
Details: co-precipitated protein Cgn (CING_MOUSE)
In short: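 Relative protein abundance came from 6-plex TMT MS3 quantitation on an Orbitrap Fusion Lumos, after in-gel trypsin digestion of Coomassie-stained SDS-PAGE lanes. Input was a Ni-NTA pulldown (250 mM imidazole elution) of lysates from murine MLO-Y4 cells. These cells were treated on ice with His-tagged irisin or adipsin (10 nM, 20 min) in serum-free medium, then crosslinked with 1.5 mM DTSSP for 30 min.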

TMT signal-to-noise ratio: 200.289
Substance: adipsin

— patent publication US20210063414A1, “METHODS FOR PREVENTING AND/OR TREATING BONE LOSS CONDITIONS BY MODULATING IRISIN” (Dana-Farber Cancer Institute, Inc., priority 2018, published 2021)
